In patent US20250270341A1 (Alector, published 2025) one finds OD450 data, which are given here for 11 molecules.

Common to all, as to experiment: ELISA, hybridoma supernatant
One experiment has as its target T1, muCD98hc ECD Avi-His (mouse, UniProt P10852 100-526).
T1 construct: biotinylated on the Avi tag where captured on streptavidin; also called Mouse CD98-AVI-His; Mouse CD98hc-AVI-His
T1 sequence: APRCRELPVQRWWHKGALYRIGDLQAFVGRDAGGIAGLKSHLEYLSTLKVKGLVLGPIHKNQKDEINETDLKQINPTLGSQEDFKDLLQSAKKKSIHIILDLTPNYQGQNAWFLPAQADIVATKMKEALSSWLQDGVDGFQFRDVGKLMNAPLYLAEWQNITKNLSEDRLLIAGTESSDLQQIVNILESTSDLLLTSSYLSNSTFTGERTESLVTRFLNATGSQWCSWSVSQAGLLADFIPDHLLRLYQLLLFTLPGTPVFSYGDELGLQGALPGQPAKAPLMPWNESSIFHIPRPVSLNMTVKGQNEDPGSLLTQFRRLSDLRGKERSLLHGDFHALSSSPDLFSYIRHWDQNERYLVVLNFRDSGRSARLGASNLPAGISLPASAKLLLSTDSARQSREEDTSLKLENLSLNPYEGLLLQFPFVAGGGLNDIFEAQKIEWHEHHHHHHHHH
As to the method:
(§1) Briefly, 96-well polystyrene plates were coated with 5 μg/ml of streptavidin (Thermo Fisher, Cat #PI21125) in coating buffer (0.05M carbonate buffer, pH 9.6, Sigma, Cat #C3041) overnight at 4° C. Coated plates were then blocked with ELISA diluent (PBS+0.5% BSA+0.05% Tween20) for one hour. Blocking buffer was removed and human, cyno, or mouse Avi-His-tagged CD98hc and Avi-His-tagged human TfR polypeptides were added at 1 μg/ml in ELISA diluent and captured for 1 hour at room temperature. After washing three times with 300 μl of PBST (PBS+0.05% Tween20, Thermo 28352), the hybridoma cell culture supernatants or 1 μg/ml of commercially available purified mouse anti-human CD98hc monoclonal antibody (Sigma Aldrich, Cat #SAB 4700503) and rat anti-mouse CD98hc antibody (Bio-Rad Laboratories, Hercules, CA, Cat #MCA2684) were added (50 μl/well) to each well. After 30 minutes of incubation at room temperature, the plates were washed three times with 300 μl of PBST. […] After a final set of washes (3×300 μl in PBST), 50 μl/well of BioFx TMB substrate (Surmodics, Eden Praire, MN, Cat #TMBW-1000-01) was added to the wells. The reaction was then quenched after 5-10 mins with 50 μl/well of 2N sulfuric acid. The plates were read for absorbance at 450 nm on a SpectraMax M5 (Molecular Devices, Sunnyvale, CA) using SoftMax Pro software.

The target of a further experiment is T2, Cyno CD98hc ECD Avi-His (cynomolgus macaque, UniProt P08195 105-529 (human entry)).
T2 construct: biotinylated on the Avi tag where captured on streptavidin; also called Cyno CD98-AVI-His; Cyno CD98hc-AVI-His
T2 chain: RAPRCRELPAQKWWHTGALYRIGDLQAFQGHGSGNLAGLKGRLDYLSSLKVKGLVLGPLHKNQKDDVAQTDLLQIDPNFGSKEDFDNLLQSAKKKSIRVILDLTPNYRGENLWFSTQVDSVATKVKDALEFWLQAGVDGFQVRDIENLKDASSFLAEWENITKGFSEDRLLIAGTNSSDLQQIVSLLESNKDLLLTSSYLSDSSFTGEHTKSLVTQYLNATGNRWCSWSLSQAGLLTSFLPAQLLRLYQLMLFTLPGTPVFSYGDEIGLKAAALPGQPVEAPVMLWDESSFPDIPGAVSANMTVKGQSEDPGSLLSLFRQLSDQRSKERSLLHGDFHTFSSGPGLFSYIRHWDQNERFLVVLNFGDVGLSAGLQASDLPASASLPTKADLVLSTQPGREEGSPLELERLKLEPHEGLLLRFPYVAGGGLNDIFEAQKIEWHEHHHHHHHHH
As to the method:
as §1

Experiment [1] addresses T3, Human TfR-AVI-His (control) (human, UniProt P02786 89-760).
T3 construct: control protein; also called Avi-His-tagged human TfR; human transferrin receptor
As to the method: as §1

The next experiment has as its target T4, huCD98hc ECD Avi-His (human, UniProt P08195 105-529).
T4 construct: biotinylated on the Avi tag where captured on streptavidin; also called Human CD98-AVI-His; Human CD98hc-AVI-His
T4 sequence: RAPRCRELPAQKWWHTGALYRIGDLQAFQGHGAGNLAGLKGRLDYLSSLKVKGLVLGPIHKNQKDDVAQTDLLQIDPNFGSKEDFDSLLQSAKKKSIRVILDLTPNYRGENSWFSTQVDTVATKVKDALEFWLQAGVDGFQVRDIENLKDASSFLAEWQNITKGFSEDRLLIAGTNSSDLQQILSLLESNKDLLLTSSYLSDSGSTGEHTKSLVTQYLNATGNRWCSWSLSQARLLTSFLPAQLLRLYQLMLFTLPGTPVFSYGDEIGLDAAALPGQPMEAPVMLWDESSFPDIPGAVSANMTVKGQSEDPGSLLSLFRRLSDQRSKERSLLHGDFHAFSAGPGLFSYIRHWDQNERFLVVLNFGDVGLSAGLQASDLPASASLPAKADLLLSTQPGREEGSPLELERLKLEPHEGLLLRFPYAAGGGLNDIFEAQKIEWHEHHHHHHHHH
As to the method: as §1

T3 sequence (P02786 89-760 limits assumed): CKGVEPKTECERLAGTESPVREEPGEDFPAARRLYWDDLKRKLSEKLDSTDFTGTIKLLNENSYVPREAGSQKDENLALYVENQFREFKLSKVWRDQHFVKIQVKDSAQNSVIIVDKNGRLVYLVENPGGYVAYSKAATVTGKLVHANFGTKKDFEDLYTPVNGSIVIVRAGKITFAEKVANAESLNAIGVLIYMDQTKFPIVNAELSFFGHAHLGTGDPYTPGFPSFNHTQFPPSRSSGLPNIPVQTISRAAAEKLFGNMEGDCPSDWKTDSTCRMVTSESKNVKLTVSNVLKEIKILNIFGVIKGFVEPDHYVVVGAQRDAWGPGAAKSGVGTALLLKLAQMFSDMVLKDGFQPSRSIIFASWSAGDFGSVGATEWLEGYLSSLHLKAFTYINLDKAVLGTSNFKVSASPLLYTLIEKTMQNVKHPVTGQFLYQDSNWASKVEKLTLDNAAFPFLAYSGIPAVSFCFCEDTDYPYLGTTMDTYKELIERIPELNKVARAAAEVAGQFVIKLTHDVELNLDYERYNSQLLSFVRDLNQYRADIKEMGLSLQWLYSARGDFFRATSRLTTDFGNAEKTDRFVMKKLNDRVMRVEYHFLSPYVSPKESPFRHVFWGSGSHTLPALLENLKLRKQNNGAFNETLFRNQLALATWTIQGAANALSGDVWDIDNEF

B1: CD98HC.03.002 (antibody, V domains shown)
VH: DVQLVESGGGLVQPGGSRKLSCAASGFTFSTFGMHWVRQAPEKGLEWVAYISGGSTNIYYADTVKGRFTISRDNPKNTLFLQMTSLRSEDTAMYYCARETTLLATNFDYWGQGTTLTVSS
VL: DIQMTQTTSSLSASLGDRVTISCRASQDISNYLNWYQQKPDGTVKLLIYYTSRLHSGVPSRFSGSGSGTDYSLTISNLEQEDIATYFCQQGSTLPRTFGGGTKLEIK
notes: hybridoma IgG
In the case of B1, the OD450 with muCD98hc ECD Avi-His is 0.0802; with Cyno CD98hc ECD Avi-His it was 1.69; in experiment [1], 0.073; with huCD98hc ECD Avi-His, 1.53.

B2: CD98HC.04.003 (antibody, V domains shown)
VH: QVQLQQSGAELAKPGASLKMSCKASGYTFTDYYIHWVKQRPGQDLEWIGYINPNSAYTDSNQKFKDKATLTADKSSNTAYMQLSSLTSEDSAVYYCARKGHFYAPSFAYWGQGTLVTVSA
VL: DIQMTQTTSSLSASLGDRVTISCRASQDISNYLNWYQQKPDGTVKLLIYYTSRLHSGVPSRFSGSGSGADYSLTISNLQQEDIATYFCQQGDTLPYTFGGGTKLEIE
notes: hybridoma IgG
Consider B2, for which the OD450 with muCD98hc ECD Avi-His was determined as 0.0565; with Cyno CD98hc ECD Avi-His it was 2.05; in experiment [1] it was 0.0601; with huCD98hc ECD Avi-His, 1.6.

B3: CD98HC.04.006 (antibody, V domains shown)
VH: EVNLVESGGDLVQPGGSLRLSCATSGFTFTDYFMSWVRQPPGKALEWLGFIRNKAYGYTTEYSASVKGRFTISRDNSQSIFYLQMNTLRLEDSATYYCARGPFISTAPFAYWGQGTLVTVSA
VL: DIVMSQSPSSLAVSVGETVTMSCKSSQSLLYSSNQKNYLAWYQQKPGQSPKLLIYWGSTRESGVPDRFTGSGSGTDFTLTISSVKAEDLAVYYCQHYYGYPWTFGGGTKLEIK
notes: hybridoma IgG
Take B3: the OD450 with muCD98hc ECD Avi-His came to 0.13; with Cyno CD98hc ECD Avi-His, 1.71; in experiment [1] it was 0.129; with huCD98hc ECD Avi-His, 1.24.

B4: CD98HC.03.031 (antibody, V domains shown)
VH: QVQLQQSGAELVRPGVSVKISCKASGYTFTDYAMHWVKQSHAKSLEWIGVISTYYGDTTYNQKFKDKATMTVDKSSSTAYLELARLTSEDSAIYYCARVWLLSYAMDNWGQGTSVTVSS
VL: DIVMTQSQRFMSTSVGDGVRITCKASQNVRTAVAWYQQKPGQSPKALINLAPNRHTGVPDRFTARGSGTDFTLTISNVQSEDLADYFCLQHWNYPLTFGAGTKLELK
notes: hybridoma IgG
For B4, the OD450 with muCD98hc ECD Avi-His was determined as 0.0843; with Cyno CD98hc ECD Avi-His, 1.48; in experiment [1], 0.0873; with huCD98hc ECD Avi-His, 1.06.

B5: CD98HC.04.022 (antibody, V domains shown)
VH: EVQLQQSGAELVKPGASVKLSCTASGFNIKDTFMHWMKQRPEQGLEWIGRIDPANANTRYDPKFQGKATITTDTSSNTAYLQLSSLTSEDTAVYYCARDVYYDVWGAGTTVTVSS
VL: DILMTQSPSSMSVSLGDTVTITCHASQGISSNIGWLQQKPGRSFKGLIYHGSNLEDGVPSRFTGSGSGTDYSLTISGLESEDFADYYCVQYAQFPRTFGGGTKLEIQ
notes: hybridoma IgG
Turning to B5, the OD450 with muCD98hc ECD Avi-His is 0.0554; in the experiment with Cyno CD98hc ECD Avi-His, 1.89; in experiment [1] it was 0.0533; with huCD98hc ECD Avi-His, 1.36.

B6: CD98HC.04.013 (antibody, V domains shown)
VH: EVQLVESGGDLGMPGGSLKLSCAASGFALSGYDMSWVRQTPDKRLEWVAYLSSGGGSTYYPYTVKGRFTISRDNAQNTLYLQMSSLKSEDTAIYYCARHSEVRPWFGYWGQGTLVTVSA
VL: DIVMSQSPSSLAVSVGEKVTLTCKSSQSLLYSGNQKNYLAWYQQNPGQSPKLLIYWASTRESGVPDRFTGSGSGTDFTLTISSVKAEDLAVYYCQQYYTYPPTFGAGTKLGLK
notes: hybridoma IgG
Consider B6, for which the OD450 in the experiment with muCD98hc ECD Avi-His is 0.0717; with Cyno CD98hc ECD Avi-His, 2.04; in experiment [1], 0.0667; with huCD98hc ECD Avi-His, 1.17.

B7: CD98HC.04.010 (antibody, V domains shown)
VH: QVQLQQSGAELMKPGASVKISCKATGYTFSTYWIEWVKQRPGHGLEWIGEILPGSGTTTYNEKFKGKATFTADTSSNTAYMQLSSLTSEDSAVYYCARRTVYYRYEGIDYWGQGTTLTVSS
VL: QIVLTQSPAIMSASPGEKVTITCSASSSVSYMFWFQQRPGTSPKLWIYTTSNLASGVPARFSGSGSGTSYSLTISRMEAEDAATYYCQQKNNYPFTFGSGTKLEIK
notes: hybridoma IgG
Regarding B7, the OD450 with muCD98hc ECD Avi-His amounted to 0.0907; in the experiment with Cyno CD98hc ECD Avi-His it was 1.97; in experiment [1] it was 0.102; with huCD98hc ECD Avi-His, 1.48.

B8: CD98HC.04.011 (antibody, V domains shown)
VH: DVQLQESGPDLVKPSQSLSLTCSVTVYSFTSVYSWHWIRQFPGNKLEWMGYIHDSGTTNYNPSLKSRISVTRDTSKNQFFLQLNSVTTEDTATYYCARGRPYGYDGFAYWGQGTLVTVSA
VL: DIQMTQSSSYLSVSLGDRVTITCKASDHINNWLAWYQQKPGNAPRLLITGAVNLETGVPSRFSGSGSGKDYTLSITSLQTEDVATYYCQQYWSIPRTFGGGTNLEIK
notes: hybridoma IgG
As to B8, the OD450 was 0.067 with muCD98hc ECD Avi-His, 1.76 with Cyno CD98hc ECD Avi-His, 0.0705 in experiment [1] and 1.16 with huCD98hc ECD Avi-His.

B9: CD98HC.04.018 (antibody, V domains shown)
VH: QIQLVQSGPELKKPGETVKISCKASGYTFRNYGMNWVKQAPGKGLKWMGWINTYTGEPTYAEDFKGRFAFSLETSASTAYLQINKLKNEDEATYFCARGEAHWYFDVWGAGTTVTVSS
VL: QIVLTQSPAIMSASLGERVTMTCTASSSVSSSYLYWYQQKPGSSPKLWIYSIFNLASGVPARFSGSGSGTSYSLTISSMEAEDAATYYCHQYHRSPPTFGGGTKLEIK
notes: hybridoma IgG
Regarding B9, the OD450 in the experiment with muCD98hc ECD Avi-His amounted to 0.079; with Cyno CD98hc ECD Avi-His, 1.97; in experiment [1], 0.0717; with huCD98hc ECD Avi-His, 1.64.

B10: CD98HC.04.009 (antibody, V domains shown)
VH: QVQLKESGPGLVAPSQSLSITCTVSGFSLTSYGVHWVRQPPGKGLEWLGVIWAGGSTYYNSALMSRLSISKDNAKSQVLLKMSSLQTDDTAMYYCARDNYGGVYLDVWGAGTTVTVSS
VL: ENVLTQSPASMSASPGEKVTMTCRASSSVSSSYLHWYQQKSGASPKLWIYSTSNLASGVPARFSGSGSGTSYSLTISSVEAEDAATYYCQQYSGYPLTFGSGTKLEIK
notes: hybridoma IgG
Regarding B10, the OD450 amounted to 0.0688 with muCD98hc ECD Avi-His, 1.42 with Cyno CD98hc ECD Avi-His, 0.0743 in experiment [1] and 0.991 with huCD98hc ECD Avi-His.

B11: CD98HC.04.012 (antibody, V domains shown)
VH: QVQLQQSGADLVRPGDSVKISCKGSGYTFTDNTLHWVKQSHAKSLEWIGVISPYYGDASYNQKFKGKATMTVDKSSSTAYMELARLTSEDSAIYYCARVGGRLRLGYYFDHWGQGTTLTVSS
VL: NIMMTQSPSSLAVSAGEKVTMNCKSSQSVLSSSNQKNYLAWYQQKPGQSPKLLIYWASTRESGVPARFTGSGSGTDFSLTITSVQAEDLAVYYCLQYLSSYTFGGGTKLEIK
notes: hybridoma IgG
As to B11, the OD450 is 0.0786 with muCD98hc ECD Avi-His, 1.73 with Cyno CD98hc ECD Avi-His, 0.074 in experiment [1] and 1.64 with huCD98hc ECD Avi-His.
